Test results reported in paper PMC6530996, “HspB1 phosphorylation regulates its intramolecular dynamics and mechanosensitive molecular chaperone interaction with filamin C” (Science Advances, 2019).
No end group written: not given here.

Experiments:
[1] = target: T1, FLNCd18–21 (Homo sapiens, UniProt Q14315); experiment: SDS-PAGE aggregation assay with FLNCd18–21; type: biochemical; settings: 80 μM HspB1 + 40 μM FLNCd18–21 (2:1), 200 mM ammonium acetate pH 6.9, 500 μM DTT, 25°C, 90 min, densitometry
T1 construct: WT, residues 1943 to 2408 from UniProt ID Q14315; 6xHis (C); EEF (C); made in house; host or cells: E. coli BL21(DE3) pLysS
T1 sequence (Q14315 1943-2408): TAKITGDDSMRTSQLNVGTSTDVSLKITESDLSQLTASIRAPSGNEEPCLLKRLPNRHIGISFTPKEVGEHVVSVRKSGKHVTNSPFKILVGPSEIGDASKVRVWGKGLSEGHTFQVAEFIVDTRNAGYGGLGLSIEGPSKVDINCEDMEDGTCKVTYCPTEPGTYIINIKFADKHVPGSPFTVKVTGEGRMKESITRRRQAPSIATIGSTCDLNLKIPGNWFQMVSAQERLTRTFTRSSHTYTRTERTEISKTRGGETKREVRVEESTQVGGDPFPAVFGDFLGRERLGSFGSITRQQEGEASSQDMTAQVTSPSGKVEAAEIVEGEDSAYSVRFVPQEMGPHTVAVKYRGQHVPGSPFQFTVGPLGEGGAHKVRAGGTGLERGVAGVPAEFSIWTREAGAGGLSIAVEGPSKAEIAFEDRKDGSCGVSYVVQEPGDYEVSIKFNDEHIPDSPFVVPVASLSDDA
Experimental: (§1) Next, to validate the interaction in vitro, we expressed EEF-tagged human FLNC domains 18 to 21, encompassing the apparent HspB1 binding site ([16]), and full-length human HspB1 attached to a T7 tag. […] To investigate the effect of HspB1 phosphorylation on the interaction, we expressed WT human HspB1 and ^3PHspB1, a triple mutant containing phosphomimetic Ser to Asp substitutions at residues 15, 78, and 82. Upon incubation with FLNCd18–21 in vitro, we noticed that mixtures accumulated insoluble protein aggregates, while isolated proteins remained soluble. […] The results support an interaction between HspB1 and FLNCd18–21 to form large complexes that can be modulated by phosphorylation of HspB1.
HspB1 (WT or 3P) was mixed with FLNCd18–21 at a 2:1 ratio (80 and 40 μM, respectively) in 200 mM ammonium acetate (pH 6.9) with 500 μM DTT and incubated at 25°C for 90 min. Aliquots were removed periodically and pelleted at 13,000g at 10°C for 10 min. Soluble fractions were diluted threefold with 200 mM ammonium acetate for analysis by SDS-PAGE, and pellets were resuspended in the same volume of 200 mM ammonium acetate and solubilized upon addition of the SDS-PAGE loading buffer. Gel bands were quantified by densitometry, using the raw intensities of FLNC and HspB1 bands to extract relative soluble and insoluble proportions at each time point.

[2] = target: T1, FLNCd18–21; experiment: native MS peptide titration / complex detection with FLNCd18–21; type: binding; settings: for complex formation with FLNCd18–21: native MS, 200 mM ammonium acetate pH 6.9, peptides at 30 μM with 5 μM FLNCd18–21 (fig. S5D)
Text: To isolate a stable HspB1-FLNCd18–21 complex and localize the binding within HspB1, we performed native ion mobility MS (IM-MS) experiments. […] Next, we mixed FLNCd18–21 with either HspB1_84–171 or peptides mimicking the PPR, because this region is phosphorylated in the MLP KO mice (Fig. 1C) and generally upon biomechanical stress ([26]) and becomes exposed thereafter. This strategy of using segments of HspB1 meant that we could avoid the problems of insolubilization of the full-length protein upon interaction with FLNC d18–21, as well as generally mitigate the confounding effects associated with the chaperone’s intrinsic polydispersity.
By quantifying the relative abundances of FLNCd18–21 and the peptide-bound species, we could determine binding affinities (Fig. 4B, lower panel, and fig. S4G). We obtained similar dissociation constants (KDs) of 130 ± 17 μM (HspB1_80–88) and 110 ± 10 μM (^PHspB1_80–88), indicating weak binding that is not affected substantially by phosphorylation. These findings contrast with the notable effect of HspB1 phosphomimicry on the interaction of full-length chaperone with the FLNC fragment (Fig. 1E). However, they can be rationalized by phosphorylation increasing the effective concentration of the binding region by modulating its conformational state (Fig. 2B and fig. S3) and leading to dimer (Fig. 2D) and oligomer disassembly ([22], [23]). To localize binding of HspB1_80–88 to domains with Ig folds or to the d20 insertion (which is possibly disordered), we prepared a modified FLNC construct lacking the 82 insertion residues (FLNCd18–21,ΔI).
The region of human FLNC comprising domains 18 to 21 (WT, residues 1943 to 2408 from UniProt ID Q14315; ∆I, residues 1943 to 2408 excluding 2163 to 2243) was encoded in a modified pET23a/EEF with C-terminal 6× His and EEF tags. The plasmid was transformed into E. coli BL21(DE3) pLysS cells (Agilent). To generate the Mβ construct, mutations E2136R and I2138E were introduced by site-directed mutagenesis. Cells were grown in LB at 37°C until an OD600 of 0.6 to 0.8 was reached. […] Purity was assessed by SDS-PAGE, and protein was stored in MS buffer at −80°C and used for experiments within 2 weeks of purification, after noticing in initial preparations some propensity for destabilization and aggregation following long-term storage. […]
Because HspB1 can form disulfide-linked dimers, experiments involving the ACD were performed in the presence of 10-fold molar excess DTT. […] Native MS and IM-MS data were recorded on a Synapt G1 mass spectrometer (Waters) modified for the transmission of intact noncovalent protein complexes. HspB1_77–171 variants were analyzed at a concentration of 10 μM in 200 mM ammonium acetate (pH 6.9). […]

[3] = tested on: EEF-tagged FLNCd18–21; experiment: coimmunoprecipitation of recombinant proteins; type: binding, human; settings: T7 antibody pull-down, 1 μg HspB1, 10 μg FLNCd18–21, 1 hour, room temperature
Experimental: as §1
T7-tagged purified recombinant HspB1 protein (1 μg) was added to 10 μg of EEF-tagged recombinant FLNCd18–21 in immunoprecipitation (IP) buffer [0.05% Triton X-100, 1% bovine serum albumin, protease inhibitors (Roche mini complete EDTA-free tablets) in phosphate-buffered saline (PBS)] and incubated for 1 hour, shaking at room temperature. This was followed by another 30-min incubation, shaking at room temperature after the addition of 0.5 μg of anti-T7 (69522, Novagen) or mouse IgG2b isotype (ab18457, Abcam) antibody. Next, 25 μl of protein G Sepharose resin (PC-G5, Generon) was added to each tube and incubated for 1 hour, shaking at room temperature. […]

[4] = target: T2, human FLNC domains 18 to 21 (FLNC_(d18–21)), EEF-tagged (human, UniProt Q14315 1943-2408); experiment: cell-based or functional assay
T2 sequence (looked up): T1 sequence (Q14315 1943-2408)

[5] = target: T2, human FLNC domains 18 to 21 …; experiment: native MS; native IM-MS of mixtures of FLNC_(d18–21) or FLNC_(d18–21,ΔI) with HspB1_(84–171), HspB1 peptides or an excess of control peptides; 200 mM ammonium acetate pH 6.9; settings: both partners purified
[6] = target: T2, human FLNC domains 18 to 21 …; experiment: native MS; titration: FLNC_(d18–21) constant at 5 μM, peptide 5 to 160 μM, 200 mM ammonium acetate pH 6.9, acetonitrile vapor; fit with three equivalent binding sites (UniDec); settings: both partners purified

WT human HspB1: Full-length WT HspB1
migration to pelleted fraction of mixture with FLNCd18–21 [1]: both proteins migrated to the pelleted fraction over time

QLSSGVSEI [HspB1_80–88]
Kd ([2]; native MS titration, 5 μM FLNCd18–21, 5 to 160 μM peptide, 200 mM ammonium acetate pH 6.9, minimum three technical repeats, model of three equivalent binding sites, 500 bootstraps, apparent KD, read-out: dissociation constant KD (apparent)): > 100 µM

T7-tagged HspB1: Full-length WT HspB1 with an N-terminal T7 tag
coimmunoprecipitation of FLNCd18–21 [3]: pulled down both HspB1 and FLNCd18–21
coimmunoprecipitation of FLNCd18–21 ([3]; listed as full-length human HspB1 attached to a T7 tag): confirming a direct interaction

HspB1_84–171: Human HspB1 α-crystallin domain (ACD)
complex formation with FLNCd18–21 [2]: Complexes were not observed
complex formation with FLNCd18–21 ([2]; listed as HspB184-171): No complex is observed

HspB1_177–186: Peptide from human HspB1, C-terminal residues 177 to 186 (NEITIPVTFE; UniProt P04792 177-186, looked up, fragment) [reference compound]
complex formation with FLNCd18–21 [2]: No appreciable complex is detected

^3PHspB1: Full-length human HspB1 with Ser to Asp phosphomimic substitutions at residues 15, 78 and 82
migration to pelleted fraction of mixture with FLNCd18–21 [1]: substantially increased by phosphomimicry

B1: ^PHspB1_(80–88) phosphorylated peptide (peptide, UniProt P04792 80-88, looked up)
peptide: QLSSGVSEI
modifications: also: phosphorylated, site not given here
notes: N-terminal acetylation open as for m13; also called phosphopeptide; source: synthetic peptide, bought: Biomatik
activation required for the transition of unfolding intermediate B to final state C of FLNC_(d18–21) with one peptide bound (coulombically steered unfolding, IM-MS) [4]: ~75 V
stoichiometry N [5]: ≤ 2
Kd [6]: 110 ± 10 µM
stoichiometry N [6]: ≤ 3
